Target: ornithine decarboxylase (ODC) present in Xenopus laevis oocytes
Test: cell-based or functional assay

B1: hRS1-Reg (regulatory domain of human RS1, amino acids 16-98 of hRS1), wildtype (other, not shown: small tags and cut ends)
chain: SSGQSPDVGNPMSLARSVSASVCPIKPSDSDRIEPKAVKALKASAEFQLNSEKKEHLSLQDLSDHASSADHAPTDQSPAMPMQ
  IC50 for down-regulation of hSGLT1-mediated AMG uptake in oocytes (intracellular AMG <10 µM): 71 nM
  change of affinity for down-regulation of hSGLT1 when intracellular AMG is raised to 250 µM: 8 fold

## QEP [QEP (glutamine-glutamic acid-proline tripeptide)]
  IC50 for down-regulation of hSGLT1 in oocytes at about 0.25 mM intracellular AMG: 0.0002 nM
  IC50 for inhibition of SGLT1-mediated AMG uptake in oocytes without injection of AMG: 7.9 nM
  IC50 without injection of AMG, against QSP: ~40 times
  increase of affinity at ~0.25 mM intracellular AMG against low intracellular AMG: > 15000 fold

From patent US20170042969A1 (JULIUS MAXIMILIANS UNIVERSIT T W RZBURG, published 2017)
